Reference: patent publication US20030036642, “Platelet derived growth factor (PDGF) nucleic acid ligand complexes” (published 2003)
Where a chain is given by its changes, count along the chain named.

B1: 1145 (ssDNA)
DNA: CACAGGCTACGGCACGTAGAGCATCACCATGATCCTGTGT
modifications: 2'-OMe C25,A26,C27,C28,A29; 3'-3' inverted T at nt 40
B2: EV3 (ssDNA)
DNA: B1 DNA
modifications: 2'-OMe C10,G11,G12,C13,A14; 3'-3' inverted T at nt 40
B3: EV4 (ssDNA)
DNA: B1 DNA
modifications: 2'-OMe C1,A2,C3,A4; 3'-3' inverted T at nt 40
B4: 1149 (ssDNA)
DNA: B1 DNA
modifications: 2'-OMe G19,A20,G21,C22; 3'-3' inverted T at nt 40
B5: EV1 (ssDNA)
DNA: B1 DNA
modifications: 2'-OMe A20,G21,C22; 3'-3' inverted T at nt 40
B6: 1160 (ssDNA)
DNA: B1 DNA
modifications: 2'-F C22; 3'-3' inverted T at nt 40
B7: 1162 (ssDNA)
DNA: B1 DNA
modifications: 2'-F C34; 3'-3' inverted T at nt 40
B8: 1161 (ssDNA)
DNA: B1 DNA
modifications: 2'-F C25; 3'-3' inverted T at nt 40
B9: 1157 (ssDNA)
DNA: B1 DNA
modifications: 2'-F C7; 3'-3' inverted T at nt 40
B10: 36t (ssDNA)
DNA: B1 DNA
modifications: 3'-3' inverted T at nt 40
B11: 1165 (ssDNA)
DNA: B1 DNA
modifications: 2'-F C35; 3'-3' inverted T at nt 40
B12: 1295 (ssDNA)
DNA: CAGGCUACGGCACGTAGAGCAUCACCATGATCCUG
modifications: 2'-F U6,U22,C23,C32,C33; 2'-OMe C8,G9,G10,C11,A12,A24,C25,C26,A27,U34,G35; 3'-3' inverted T at nt 36
B13: 1305 (ssDNA)
DNA: B12 DNA
modifications: 2'-OMe C5,U6,C8,G9,G10,C11,A12,A18,U22,C23,A24,C25,C26,A27,C32,C33,U34,G35; 3'-3' inverted T at nt 36
B14: 1328 (ssDNA)
DNA: B12 DNA
modifications: 2'-F U6,U22,C23,C32,C33; 2'-OMe C8,G9,G10,C11,A12,G19,C20,A24,C25,C26,A27,U34,G35; 3'-3' inverted T at nt 36
B15: 1329 (ssDNA)
DNA: B12 DNA
modifications: 2'-F U6,U22,C23,C32,C33; 2'-OMe C8,G9,G10,C11,A12,G17,G19,C20,A24,C25,C26,A27,U34,G35; 3'-3' inverted T at nt 36
B16: 1327 (ssDNA)
DNA: B12 DNA
modifications: 2'-F U6,U22,C23,C32,C33; 2'-OMe C8,G9,G10,C11,A12,G19,A24,C25,C26,A27,U34,G35; 3'-3' inverted T at nt 36
B17: 1304 (ssDNA)
DNA: B12 DNA
modifications: 2'-OMe C5,U6,A7,C8,G9,G10,C11,A12,U22,C23,A24,C25,C26,A27,C32,C33,U34,G35; 3'-3' inverted T at nt 36
B18: 1303 (ssDNA)
DNA: B12 DNA
modifications: 2'-F U6; 2'-OMe C8,G9,G10,C11,A12,U22,C23,A24,C25,C26,A27,C32,C33,U34,G35; 3'-3' inverted T at nt 36
B19: 1374 (ssDNA)
DNA: B12 DNA
modifications: 2'-F U6,U22,C23,C32,C33; 2'-OMe A7,C8,G9,G10,C11,A12,G17,G19,A24,C25,C26,A27,U34,G35; 3'-3' inverted T at nt 36
B20: 1306 (ssDNA)
DNA: B12 DNA
modifications: 2'-OMe C5,U6,C8,G9,G10,C11,A12,G19,U22,C23,A24,C25,C26,A27,C32,C33,U34,G35; 3'-3' inverted T at nt 36
B21: 1369 (ssDNA)
DNA: B12 DNA
modifications: 2'-F U6,U22,C23,C32,C33; 2'-OMe C8,G9,G10,C11,A12,G17,G19,A24,C25,C26,A27,U34,G35; 3'-3' inverted T at nt 36
B22: 20t (ssDNA)
DNA: TGGGAGGGCGCGTTCTTCGTGGTTACTTTTAGTCCCGT
modifications: 3'-3' inverted T at nt 38
B23: 1296 (ssDNA)
DNA: CAGGCUCGGCACGAGAGCAUCACCATGATCCUG
modifications: 2'-F U6,U20,C21,C30,C31; 2'-OMe C7,G8,G9,C10,A11,A22,C23,C24,A25,U32,G33; 3'-3' inverted T at nt 34
B24: 1074 (ssDNA)
DNA: CACAGGCTACGGCACGUAGAGCATCACCATGATCCTGTG
modifications: 2'-OMe C10,G11,G12,C13,A14,C15,G16,U17; 3'-3' inverted T at nt 40
B25: 1166 (ssDNA)
DNA: B24 DNA with U17T
modifications: 2'-F U17; 3'-3' inverted T at nt 40
B26: 1144 (ssDNA)
DNA: B24 DNA with U17T, T33U, T36U
modifications: 2'-OMe G31,A32,U33,C34,C35,U36; 3'-3' inverted T at nt 40
B27: EV5 (ssDNA)
DNA: B24 DNA with U17T, T36U, T38U
modifications: 2'-OMe U36,G37,U38,G39; 3'-3' inverted T at nt 40
B28: 1142 (ssDNA)
DNA: B24 DNA with T24U
modifications: 2'-OMe U17,A23,U24; 3'-3' inverted T at nt 40
B29: 1158 (ssDNA)
DNA: B24 DNA with U17T
modifications: 2'-F U33; 3'-3' inverted T at nt 40
B30: 1076 (ssDNA)
DNA: B24 DNA with T30U
modifications: 2'-OMe C1,A2,C3,C10,G11,G12,C13,A14,C15,G16,U17,A26,C27,C28,A29,U30; 3'-3' inverted T at nt 40
B31: EV2 (ssDNA)
DNA: B24 DNA
modifications: 2'-OMe G12,C13,A14,C15,G16,U17; 3'-3' inverted T at nt 40
B32: 1075 (ssDNA)
DNA: B24 DNA with U17T, T30U
modifications: 2'-OMe A26,C27,C28,A29,U30; 3'-3' inverted T at nt 40
B33: 1164 (ssDNA)
DNA: B24 DNA with U17T
modifications: 2'-F U8; 3'-3' inverted T at nt 40
B34: 1265 (ssDNA)
DNA: B24 DNA with U17T, T36U, T38U
modifications: 2'-OMe C10,G11,G12,C13,A14,C25,A26,C27,C28,A29,U36,G37,U38,G39; 2'-F C34; 3'-3' inverted T at nt 40
B35: 1148 (ssDNA)
DNA: B24 DNA with T8U, U17T
modifications: 2'-OMe A4,G5,G6,C7,U8,A9; 3'-3' inverted T at nt 40
B36: 1257 (ssDNA)
DNA: B24 DNA with U17T, T38U
modifications: 2'-OMe C10,G11,G12,C13,A14,A26,C27,C28,A29,G37,U38,G39; 2'-F C34; 3'-3' inverted T at nt 40
B37: 1163 (ssDNA)
DNA: B24 DNA with U17T
modifications: 2'-F U30; 3'-3' inverted T at nt 40
B38: 1159 (ssDNA)
DNA: B24 DNA with U17T
modifications: 2'-F U24; 3'-3' inverted T at nt 40
B39: 1267 (ssDNA)
DNA: B24 DNA with U17T, T36U, T38U
modifications: 2'-OMe C10,G11,G12,C13,A14,C25,A26,C27,C28,A29,U36,G37,U38,G39; 2'-F C34,C35; 3'-3' inverted T at nt 40
B40: 1269 (ssDNA)
DNA: B24 DNA with T8U, U17T, T36U, T38U
modifications: 2'-F U8,C34; 2'-OMe C10,G11,G12,C13,A14,C25,A26,C27,C28,A29,U36,G37,U38,G39; 3'-3' inverted T at nt 40
B41: 36ta (ssDNA)
DNA: CAGGCTACGGCACGTAGAGCATCACCATGATCCTGT
modifications: 3'-3' inverted T at nt 36
B42: 1297 (ssDNA)
DNA: CAGGCUCGGCACGAGAGCAUCCCAGATCCUG
modifications: 2'-F U6,U20,C21,C28,C29; 2'-OMe C7,G8,G9,C10,A11,C22,C23,A24,U30,G31; 3'-3' inverted T at nt 32
B43: 1266 (ssDNA)
DNA: CACAGGCUACGGCACGTAGAGCAUCACCATGATCCUGUG
modifications: 2'-F U8,U24,C25,C34,C35; 2'-OMe C10,G11,G12,C13,A14,A26,C27,C28,A29,U36,G37,U38,G39; 3'-3' inverted T at nt 40
B44: 41t (ssDNA)
DNA: TACTCAGGGCACTGCAAGCAATTGTGGTCCCAATGGGCTGAGTAT
modifications: 3'-3' inverted T at nt 45

Experiments:
[1] = target: PDGF-AB (A-chain/B-chain heterodimer) (Homo sapiens, UniProt P04085;P01127 P04085:87-211,P01127:82-190); assay: filter; conditions: tags: R&D Systems, expressed in E. coli, carrier-free
Procedure: (§1) Determination of the apparent equilibrium dissociation constants and the dissociation rate constants. The binding of ssDNA ligands at low concentrations to varying concentrations of PDGF was determined by the nitrocellulose filter binding method as described (Green et al. (1995) Chemistry and Biology 2:683-695). […] All ssDNA ligands were heated at 90° C. in binding buffer at high dilution (≈1 nM) for 2 min and cooled on ice prior to further dilution into the protein solution. The binding mixtures were typically incubated for 15 min at 37° C. before partitioning on nitrocellulose filters.

[2] = target: T1, PDGF-BB (mature B-chain homodimer) (Homo sapiens, UniProt P01127 P01127:82-190); assay: inhibition; 125I-PDGF-BB binding to alpha-receptor on PAE cells, 4 C; conditions: tags: R&D Systems, expressed in E. coli, carrier-free; chain copies: 2 B-chains (stated as BB isoform); three-way helix junction
Procedure: Receptor Binding Assay. The binding of ′ ²⁵I-PDGF-AA and ¹²⁵I-PDGF-BB to porcine aortic endothelial (PAE) cells transfected with PDGF α- or β-receptors were performed as described (Heldin et al., (1988) EMBO J. 7:1387-1394). Different concentrations of DNA ligands were added to the cell culture (1.5 cm²) in 0.2 ml of phosphate buffered saline supplemented with 1 mg bovine serum albumin per ml together with ¹²⁵I-PDGF-AA (2 ng, 100,000 cpm) or ¹²⁵I-PDGF-BB (2 ng, 100,000 cpm). After incubation at 4° C. for 90 min, the cell cultures were washed and cell associated radioactivity determined in a g-counter (Heldin et al., (1988) EMBO J. 7:1387-1394).

[3] = target: T1, PDGF-BB (mature B-chain homodimer); assay: filter; printed as 0.159 ± 13 pM, unit evidently nM ± pM; conditions: tags: R&D Systems, expressed in E. coli, carrier-free; chain copies: 2 B-chains (stated as BB isoform)
Procedure: as §1

PDGF-AB (A-chain/B-chain heterodimer), sequence (P01127 82-190, chain 2 of 2, other chains not shown): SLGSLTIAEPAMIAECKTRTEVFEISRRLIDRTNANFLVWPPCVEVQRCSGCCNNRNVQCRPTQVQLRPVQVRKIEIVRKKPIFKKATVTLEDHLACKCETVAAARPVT
T1 sequence (P01127 82-190, one chain of several): as the sequence (P01127 82-190, chain 2 of 2, other chains not shown) above

Binder | binding signal [1] [Kd ligand/Kd 36t] | further results
B1 | 0.27 | –
B2 | 1.5 | –
B3 | 4.5 | –
B4 | 2.9 | –
B5 | 35.1 | –
B6 | 1.4 | –
B7 | 0.52 | –
B8 | 0.22 | –
B9 | 1 | –
B10 | – | IC50 [2]: ~1 nM
B11 | 0.61 | –
B12 | 0.9 | –
B13 | 196 | –
B14 | 2.2 | –
B15 | 0.72 | –
B16 | 0.63 | –
B17 | 607 | –
B18 | 5.8 | –
B19 | 1.5 | –
B20 | 4.4 | –
B21 | 0.37 | –
B22 | – | IC50 [2]: ~1 nM

Binder | binding signal [1] [Kd ligand/Kd 36t] | further results
B23 | 2.1 | –
B24 | 3.1 | –
B25 | 0.76 | –
B26 | 994 | –
B27 | 2.3 | –
B28 | 12.9 | –
B29 | 2.4 | –
B30 | 440 | –
B31 | 5.3 | –
B32 | 10 | –
B33 | 0.45 | –
B34 | 1.4 | –
B35 | 281 | –
B36 | 1.3 | –
B37 | 1.3 | –
B38 | 0.37 | –
B39 | 4.2 | –
B40 | 0.87 | –
B41 | – | Kd [3]: 0.159 nM
B42 | 2.9 | –
B43 | 1 | –
B44 | – | IC50 [2]: ~1 nM
